# B1: C55: chimeric mAb from clone 55 containing human IgG1 constant regions (antibody, V domains shown)
# VH: QVTLKESGPGILKPSQTLSLTCSFSGFSLSTSGMGVGWIRQPSGKGLEWLAHIWWDDDKYYNSSLKSHLTISKDTSRNQVFLKITSVDTADTATYYCARSFGYGLDYWGQGTTLTVSS
# VL: DIQMTQTTSSLSASLGDRVTISCSASQDISNYLNWYQQKPDGTVKLLIYYTSSLHSGVPSRFSGSGSGTDYSLTISSLEPEDIATYYCHQFSELPWTFGGGTKLEIK
# What was measured:
# [1] = system: primary CLL and MCL samples; test: ADCC against primary samples from rituximab-treated patients; format: cell-based, human; conditions: CLL (n=3) and MCL (n=2), E:T 20:1
# Method: FIGS. 3A and 3B are graphs showing BAFF-R monoclonal antibodies induce in vitro Antibody Dependent Cell-Mediated Cytotoxicity (ADCC) against primary B-cell tumors. Antibody-dependent cell-mediated cytotoxicity (ADCC) effects were measured by chromium-51 release after incubation with C55, C90, or rituximab and effectors (NK cells). […] Data are shown as the mean±s.d. of triplicate samples. *P<0.05 compared with NK cells by two-tailed Student's t-test.
# (§1) Cytotoxicity assays. Target cells (L cells, human tumor lines, primary patient samples) were labeled with chromium-51 (51Cr, Perkin Elmer, Waltham, MA) for a 51Cr release assay. Briefly, antibodies and effectors (NK cells or complement serum standard [Sigma Aldrich, St. Louis, MO]), were added to labeled target cells and incubated up to 18 hours. NK cells were enriched from PBMC (NK cell enrichment kit, Stemcell Technologies, Vancouver, Canada). 51Cr released into supernatant was detected with a Wizard Automatic Gamma Counter (Perkin Elmer).
# [2] = system: RS4; 11 (acute lymphoblastic leukemia, ALL); test: In vivo RS4;11 ALL tumor model, antibody treatment; design: species or system NSG mice; conditions: 200 μg antibody + NK-92-176V cells + IL-2 IV
# Source text: (§2) FIG. 4A is a schematic showing treatment schedule following Day 0 tumor challenge with minimum lethal dose of tumors. Treatments were given by IV tail vein injections. FIGS. 4B and 4C are images showing chimeric antibodies targeting human BAFF-R elicited in vivo therapeutic effects against B-cell tumors. Bioluminescence images of mice challenged with luciferase-expressing tumors: JeKo-1 (MCL) (FIG. 4B) or RS4; 11 (ALL) (FIG. 4C). Experimental groups received treatment of chimeric BAFF-R mAbs (C55 or C90, as indicated). Control group mice received PBS, NK cells alone, or rituximab on the same schedule. Data are representative of three independent experiments.
# (§3) In vivo studies. For tumor models, stable, luciferase-expressing tumors lines were established for bioluminescent imaging in mouse models. Briefly, a luciferase gene was introduced into tumor lines by a lentivirus gene delivery system (pLenti7.3/V5-DEST Gateway Vector Kit, Life Technologies, Carlsbad, CA). The minimum lethal dose per mouse was determined for each tumor cell line by dose titration. Tumor cells were injected intravenously (IV) and mice were monitored by in vivo bioluminescence imaging for minimum tumor dose to ensure engraftment. Minimum lethal tumor doses were 1×10^6 JeKo-1, 5×10^5 RS4; 11, 5×10^5 JeKo-1-CD20-KO, or 2.5×10^4 Z-138 cells. […]
# JeKo-1 (MCL) = test: In vivo JeKo-1 MCL tumor model, antibody treatment; design: species or system NSG mice; conditions: 200 μg antibody + NK-92-176V cells + IL-2 IV, vs PBS or NK cells alone
# Source text: as §2, §3
# JeKo-1-CD20-KO clone 25 = test: ADCC against rituximab-resistant JeKo-1-CD20-KO; format: cell-based, human; conditions: NK cells E:T 20:1
# Method: FIGS. 5A, 5B and 5C are images or graphs showing chimeric BAFF-R antibodies induce ADCC on drug resistant lymphoma models in vitro. FIG. 5A is a scatterplot of FACS analysis showing CD20 binding on JeKo-1 cells following CRISPR/HDR knock-out of CD20 gene. CD20 expression on selected CD20−/−clone #25 compared to WT JeKo-1. ADCC effects measured by chromium-51 release after incubation with C55, C90, or rituximab and effectors NK cells (E:T=20:1). Percentage of cell specific lysis of target cells: rituximab-resistant JeKo-1-CD20-KO (FIG. 5B) and ibrutinib-resistant Z-138 and SP49-IR (FIG. 5C). All data are representative of two or more identical experiments. Data are shown as the mean±s.d. of triplicate samples. *P<0.05 compared with NK cells by two-tailed Student's t-test.
# as §1
# Generation of JeKo-1-CD20-KO. […]
# [3] = system: JeKo-1, SU-DHL-6, Raji, and RL; test: Flow cytometry binding to non-Hodgkin lymphoma lines; design: species or system human; conditions: Alexa Fluor 488 conjugated chimeric antibody
# Source text: FIGS. 1A, 1B, 1C, 1D and 1E are FACS images showing generation and specificity of novel monoclonal antibodies against human BAFF-R. FIG. 1A is a FACS analysis of cell surface expression of hBAFF-R-GFP fusion protein in mouse fibroblast L cells. Gated on GFP-positive cells, engineered L cell clone (right plot) is compared to parental L cells (left plot). Clone D2C was selected for further studies. FIGS. 1B, 1C, 1D and 1E are FACS traces of fluorescent counts of anti-BAFF-R antibodies binding cell lines and patient samples. […] BAFF-R-negative 293T embryonic kidney cell line was used as a control. […] Parental L cells and secondary anti-hIgG-APC antibodies only were used as controls. […] The data are representative of three independent experiments. For all of FIGS. 1B-1E, the traces from top to bottom as shown in the figures correlate with the variables (e.g., antibody type or cell type) used from top to bottom shown below or next to the figures.
# FIG. 10 are results of FACS analyses showing hBAFF-R mAbs recognized non-Hodgkin lymphoma cell lines in vitro. […] The traces from top to bottom as shown in the figures correlate with the variables (e.g., antibody type or cell type) used from top to bottom shown next to the figures.
# JeKo-1-CD20-KO = test: In vivo JeKo-1-CD20-KO tumor model, antibody treatment; design: species or system NSG mice
# Source text: (§4) FIGS. 6A and 6B are images and FIG. 6C are graphs showing chimeric antibodies targeting human BAFF-R elicited in vivo therapeutic effects against drug resistant B-cell tumors. Bioluminescence images of mice challenged with luciferase-expressing tumors JeKo-1-CD20-KO cells (FIG. 6A) or ibrutinib-resistant Z-138 cells (FIG. 6B) followed by antibody treatments as in FIG. 4. Control group mice received PBS, NK cells alone, or rituximab on the same schedule. […] Tumor free rate and survival differences between experimental and all control groups were analyzed by log-rank test (** P<0.001). Data are representative of three independent experiments.
# as §3
# Z-138 = test: In vivo ibrutinib-resistant Z-138 tumor model, antibody treatment; design: species or system NSG mice; conditions: vs PBS or NK only
# Source text: as §4, §3
# Mino cells = test: Internalization of antibody on Mino cells; format: cell-based, human; conditions: 37° C. for 1 hour
# Method: Mino cells were incubated with mAb C90 (0.05 μg/10^6 cells) at 4° C. for 20 minutes followed by incubation at 37° C. for 1 hour. Flow cytometry analysis was performed with anti-mouse IgG-APC. Cells were gated for surface localized antibodies (OUT) and loss of cell surface staining (IN).
# [4] = system: BAFF-R-expressing L cells and JeKo-1; test: ADCC chromium-51 release assay with NK cells; format: cell-based; conditions: NK cells E:T 20:1; controls parental L cells and U266
# Method: Antibody-induced cytotoxicities measured by chromium-51 release after incubation with C55, C90, or rituximab and effectors (NK cells or complement containing serum). NK effector cell to target ratio (E:T) of 20:1. […] Data are shown as the mean±s.d. of triplicate samples. *P<0.05 compared with NK cells by two-tailed Student's t-test.
# FIG. 12 is a graph showing chimeric antibodies induced ADCC against BAFF-R expressing L cells. BAFF-R-expressing D2C L cells (targets) were labeled with chromium-51 followed by incubation overnight with chimeric mAb+NK cells (effector to target ratio, 20:1). Culture supernatant was analyzed for released chromium.
# as §1
molecule,measurement,setting,value
B1,killing by ADCC,[1],sensitive to killing by ADCC
same,tumor growth (bioluminescence),[2],markedly retarded tumor growth
same,tumor growth (bioluminescence),JeKo-1 (MCL),significant retardation of tumor growth
same,sensitivity to antibody-mediated cytotoxicity,JeKo-1-CD20-KO clone 25,retained sensitivity
same,direct binding to NHL lines,[3],exhibited direct binding
same,tumor free and long-term overall survival,JeKo-1-CD20-KO; 80-day,significant antitumor effects
same,tumor burden by bioluminescent imaging,JeKo-1-CD20-KO; Day 20,no visible tumors
same,antitumor effects,Z-138,significant effects
same,internalization upon binding BAFF-R,Mino cells,limited internalization
same,antibody-dependent cell-mediated cytotoxicity (ADCC),[4],elicited antibody-dependent cell-mediated cytotoxicity (ADCC) specifically against BAFF-R-expressing L cells and JeKo-1
